Biological target: His6-tagged cytokeratin-19 (Novus Biologicals) (UniProt P08727)
Assay: MST; His6-cytokeratin-19 labelled with RED-tris-NTA 2nd Generation dye, kept at 25 nM; BspC full-length or V-domain titrated from 5 uM to 0.153 nM; premium capillaries, Monolith NT.115 Pico, 20% excitation power

UniProt P08727, sequence (P08727 whole entry): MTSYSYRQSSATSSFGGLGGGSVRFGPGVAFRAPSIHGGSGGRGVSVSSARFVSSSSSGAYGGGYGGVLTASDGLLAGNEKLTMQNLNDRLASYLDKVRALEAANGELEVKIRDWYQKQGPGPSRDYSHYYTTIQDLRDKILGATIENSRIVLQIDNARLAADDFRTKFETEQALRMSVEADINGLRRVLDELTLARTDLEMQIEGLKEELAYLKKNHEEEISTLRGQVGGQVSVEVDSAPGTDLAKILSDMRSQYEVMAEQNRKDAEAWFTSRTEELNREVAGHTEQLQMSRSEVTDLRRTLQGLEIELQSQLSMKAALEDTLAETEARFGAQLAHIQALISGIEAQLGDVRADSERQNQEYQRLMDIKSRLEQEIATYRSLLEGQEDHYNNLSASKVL

## BspC V-domain protein (recombinant BspC consisting of only the variable domain) (domain or fragment)
  Kd: 362 nM

## full-length BspC protein (Group B streptococcal surface protein C) (natural protein)
  Kd: 32.9 nM

Source: article PMC9600255
